Tests used:
[1] = target: T1, human TCR/CD3 on purified primary human T cells (human, UniProt P01848 1-140; P01850 1-176); test: flow cytometry, purified primary human T cells
T1 construct: whole, on cells; Native TCR alpha/beta with the CD3 chains on T cells isolated from buffy coat blood; also called purified primary T cells
Procedure: Dose-dependent binding of the purified monovalent anti-TCR Nanobodies to human TCRα/β (2XN9)/CD3 expressed on CHO-K1 cells and to purified primary human T cells was evaluated by flow cytometry. In brief, cells were harvested and transferred to a V-bottom 96-well plate (1×10⁵ cells/well) and serial dilutions of Nanobodies (starting from 1 pM) were allowed to associate for 30 minutes at 4° C. in FACS buffer. […] After incubation, cells were washed 3 times with FACS Buffer. Subsequently, cells were resuspended in FACS buffer supplemented with 5 nM TOPRO3 (Molecular Probes, T3605) to distinguish live from dead cells, which are removed during the gating procedure. Cells were analysed using a FACS Array flow cytometer (BD Biosciences) and Flowing Software. First a P1 population which represented more than 80% of the total cell population was selected based on FSC-SSC distribution. In this gate, 10000 cells were counted during acquisition. From this population the TOPRO+ cells (dead cells) were excluded and the median PE value was calculated.

[2] = target: T2, human CD3 expressed on HEK293H cells (human, UniProt P04234 22-171; P09693 23-182; P07766 23-207; P20963 22-164); test: flow cytometry, HEK293H human CD3 cells
T2 construct: also called HEK293H CD3; HEK293H human CD3
T2 sequence (P04234 22-171 limits assumed, chain 1 of 4): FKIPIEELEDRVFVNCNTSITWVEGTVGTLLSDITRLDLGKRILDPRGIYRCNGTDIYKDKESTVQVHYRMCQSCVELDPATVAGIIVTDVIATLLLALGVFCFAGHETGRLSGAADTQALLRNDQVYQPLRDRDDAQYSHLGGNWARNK
T2 sequence (P09693 23-182 limits assumed, chain 2 of 4): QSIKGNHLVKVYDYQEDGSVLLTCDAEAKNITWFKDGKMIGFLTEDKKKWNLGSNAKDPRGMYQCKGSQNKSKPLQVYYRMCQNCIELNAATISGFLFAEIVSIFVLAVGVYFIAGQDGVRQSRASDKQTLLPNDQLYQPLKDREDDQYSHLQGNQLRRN
T2 sequence (P07766 23-207 limits assumed, chain 3 of 4): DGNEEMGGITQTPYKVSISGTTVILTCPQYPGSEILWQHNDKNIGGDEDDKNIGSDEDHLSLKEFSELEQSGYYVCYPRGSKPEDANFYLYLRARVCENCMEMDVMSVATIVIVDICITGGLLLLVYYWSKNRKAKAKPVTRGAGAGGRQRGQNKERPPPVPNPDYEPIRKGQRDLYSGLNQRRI
T2 sequence (P20963 22-164 limits assumed, chain 4 of 4): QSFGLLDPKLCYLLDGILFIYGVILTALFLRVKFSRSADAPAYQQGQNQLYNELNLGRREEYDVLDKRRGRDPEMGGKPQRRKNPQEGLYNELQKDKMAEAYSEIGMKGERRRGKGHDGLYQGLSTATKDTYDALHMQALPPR
From the text: The parental HEK293H cell line was included as TCR/CD3 negative cell line.

[3] = target: T3, soluble recombinant cynomolgus TCR α/β-zipper protein (cynomolgus/rhesus monkey); test: ELISA, directly coated soluble cynomolgus TCR-zipper protein
T3 construct: Made in house in CHOK1SV cells; also called recombinant cynomolgus soluble TCRα/β-zipper protein; cynomolgus/rhesus monkey TCR α/β; not shown: the zipper protein (O'Shea et al. 1993) fused C-terminally to each chain, and any linker to it
T3 alpha: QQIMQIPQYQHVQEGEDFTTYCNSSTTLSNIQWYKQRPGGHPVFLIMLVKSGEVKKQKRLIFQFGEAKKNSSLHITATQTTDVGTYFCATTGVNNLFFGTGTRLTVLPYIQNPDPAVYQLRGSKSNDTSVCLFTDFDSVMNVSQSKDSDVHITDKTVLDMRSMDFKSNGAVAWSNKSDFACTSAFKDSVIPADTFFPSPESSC
T3 beta: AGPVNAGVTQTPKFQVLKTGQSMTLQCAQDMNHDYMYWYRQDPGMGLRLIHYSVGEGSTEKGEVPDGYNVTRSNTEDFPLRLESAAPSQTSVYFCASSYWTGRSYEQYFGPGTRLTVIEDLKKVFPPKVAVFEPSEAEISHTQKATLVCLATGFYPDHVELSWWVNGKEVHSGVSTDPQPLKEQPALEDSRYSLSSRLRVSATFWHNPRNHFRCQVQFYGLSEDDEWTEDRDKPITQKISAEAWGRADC
Procedure: Quality of the TCR α/β zipper proteins was assessed in an ELISA binding assay. […] After an overnight incubation, plates were washed and blocked with PBS+1% casein for 1 h at room temperature. […] The reaction was stopped with 2M H₂SO₄ and the dose dependent binding was determined by measuring the OD at 450 nm using the Tecan sunrise 4 (FIG. 2).

[4] = target: T3, soluble recombinant cynomolgus TCR …; test: BLI (Octet RED384), cynomolgus TCR-zipper protein immobilized
Procedure: Binding affinities were measured using Bio-Layer Interferometry (BLI) on an Octet RED384 instrument (Pall ForteBio Corp.). […] For kinetic analysis, sensors were first dipped into running buffer (10 mM Hepes, 150 mM NaCl, 0.05% p20, pH7.4 from GE Healthcare Life Sciences) to determine baseline setting. […] Affinity constants (KD) were calculated applying a 1:1 interaction model using the ForteBio Data Analysis software.

human CD123 [5] = target: T4, human CD123 (human, UniProt P26951 19-378); test: cell-based or functional assay
T4 sequence (P26951 19-378 limits assumed): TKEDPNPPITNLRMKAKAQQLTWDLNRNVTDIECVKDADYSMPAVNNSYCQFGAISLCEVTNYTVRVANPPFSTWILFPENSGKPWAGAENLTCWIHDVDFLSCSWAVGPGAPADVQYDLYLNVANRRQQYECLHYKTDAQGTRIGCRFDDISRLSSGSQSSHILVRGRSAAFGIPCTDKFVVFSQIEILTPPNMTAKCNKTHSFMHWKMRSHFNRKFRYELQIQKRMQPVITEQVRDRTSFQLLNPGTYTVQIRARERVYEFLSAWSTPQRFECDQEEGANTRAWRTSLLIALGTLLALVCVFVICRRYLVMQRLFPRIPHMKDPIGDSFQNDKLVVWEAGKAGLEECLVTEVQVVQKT

human CD123 [6] = target: T4, human CD123; test: cell-based or functional assay; remark: listed apart in the source
human CD123 [7] = target: T4, human CD123; test: cell-based or functional assay; remark: listed apart in the source
human CD123 [8] = target: T4, human CD123; test: cell-based or functional assay; remark: listed apart in the source
[9] = target: T5, human CD123 expressed on cells (human, UniProt P26951 19-378); test: cell-based or functional assay
T5 sequence (P26951 19-378 limits assumed): as above

[10] = target: T5, human CD123 expressed on cells; test: cell-based or functional assay; remark: listed apart in the source
[11] = target: cynomolgus TCR/CD3 expressed on cells (cynomolgus); test: cell-based or functional assay
[12] = target: cynomolgus TCR/CD3 expressed on cells (cynomolgus); test: cell-based or functional assay; remark: listed apart in the source
[13] = target: cynomolgus TCR/CD3 expressed on cells (cynomolgus); test: cell-based or functional assay; remark: listed apart in the source
[14] = target: T5, human CD123 expressed on cells; test: cell-based or functional assay; remark: listed apart in the source
[15] = target: T6, cynomolgus CD123 expressed on HEK Flp-In cells (cynomolgus); test: cell-based or functional assay
T6 chain: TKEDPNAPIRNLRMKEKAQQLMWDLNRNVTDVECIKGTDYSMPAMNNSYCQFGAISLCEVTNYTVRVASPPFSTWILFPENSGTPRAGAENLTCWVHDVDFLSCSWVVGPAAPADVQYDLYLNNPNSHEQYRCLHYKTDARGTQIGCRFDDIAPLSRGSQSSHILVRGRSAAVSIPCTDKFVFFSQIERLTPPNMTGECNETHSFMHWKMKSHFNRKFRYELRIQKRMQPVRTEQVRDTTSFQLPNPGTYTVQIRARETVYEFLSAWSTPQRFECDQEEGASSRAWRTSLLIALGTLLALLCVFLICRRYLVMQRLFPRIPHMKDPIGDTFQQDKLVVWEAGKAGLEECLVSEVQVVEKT

[16] = target: T5, human CD123 expressed on cells; test: cell-based or functional assay; remark: listed apart in the source
[17] = target: T5, human CD123 expressed on cells; test: cell-based or functional assay; remark: listed apart in the source
[18] = target: T5, human CD123 expressed on cells; test: cell-based or functional assay; remark: listed apart in the source
[19] = target: T5, human CD123 expressed on cells; test: cell-based or functional assay; remark: listed apart in the source
[20] = target: T5, human CD123 expressed on cells; test: cell-based or functional assay; remark: listed apart in the source
[21] = target: T5, human CD123 expressed on cells; test: cell-based or functional assay; remark: listed apart in the source
[22] = target: T7, cynomolgus TCR/CD3 expressed on cells (cynomolgus); test: flow cytometry competition, HSC-F cells, competitor T017000099 (500 nM)
T7 construct: whole, on cells; Native complex with CD3 chains; the cell type is named under assay or readout; also called cyno TCR/CD3; CD3/TCR expressed on HSC-F
Procedure: Cells were washed and incubated with Propidium Iodine to stain for dead cells, which are then removed during the gating procedure. The cells were then analysed via a BD FACSArray. First a P1 population which represented more than 80% of the total cell population was selected based on FSC-SSC distribution. In this gate, 10000 cells were counted during acquisition. From this population the PI+ cells (dead cells) were excluded and the median APC value was calculated.

[23] = target: T5, human CD123 expressed on cells; test: flow cytometry competition, MOLM-13 cells, competitor A0110056A10-Alexa647 (0.4 nM)
Procedure: (§1) Next to binding to the MOLM-13 and CHO Flp-In huCD123 cells, binding to cyno CD123 transfected HEK Flp-In cells was assessed.

[24] = target: T5, human CD123 expressed on cells; test: flow cytometry competition, CHO Flp-In huCD123 cells, competitor A0110056A10-Alexa647 (0.9 nM)
Procedure: as §1

[25] = target: T6, cynomolgus CD123 expressed on HEK …; test: flow cytometry competition, HEK Flp-In cyCD123 cells, competitor A0110056A10-Alexa647 (0.9 nM)
Procedure: as §1

T1 sequence (P01848 whole entry, chain 1 of 2): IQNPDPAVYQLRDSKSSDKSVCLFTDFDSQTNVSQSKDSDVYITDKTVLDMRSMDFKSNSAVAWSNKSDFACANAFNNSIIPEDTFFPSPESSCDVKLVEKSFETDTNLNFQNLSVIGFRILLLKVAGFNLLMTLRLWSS
T1 sequence (P01850 whole entry, chain 2 of 2): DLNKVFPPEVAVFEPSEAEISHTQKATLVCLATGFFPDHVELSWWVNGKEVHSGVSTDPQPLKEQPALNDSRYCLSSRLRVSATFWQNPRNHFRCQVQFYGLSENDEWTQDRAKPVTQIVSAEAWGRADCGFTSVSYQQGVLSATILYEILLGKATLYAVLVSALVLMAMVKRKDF

B1: T0170055A02 (VHH)
VHH: EVQLVESGGGLVQPGGSLRLSCAASGDVHKINILGWYRQAPAKEREMVAHITIGDATDYADSAKGRFTISRDEAKNMVYLQMNSLKPEDTAVYFCRAYSRIYPYNYWGQGTLVTVSS
notes: also called T0170PMP055A02; T01700055A02; not shown: C-terminal triple Flag, His6 tag
[1]
  EC50: 91 nM
[2]
  binding result: no binding (tested: 1e-6 M)
[3]
  EC50: 160 nM
[4]
  Kd: 210 nM

B2: T0170056G05 (VHH)
VHH: EVQLVESGGGLVQPGGSLRLSCVASGDVHKINFLGWYRQAPGKEREKVAHISIGDQTDYADSAKGRFTISRDESKNMVYLQMNSLKPEDTAVYFCRAFSRIYPYDYWGQGTLVTVSS
notes: Monovalent anti-TCR Nanobody; also called T0170PMP056G05; T01700056G05; not shown: C-terminal triple Flag, His6 tag
[1]
  EC50: 91 nM
[2]
  binding result: no binding (tested: 1e-6 M)
[3]
  EC50: 77 nM
[4]
  Kd: 150 nM

B3: T017000139 (bispecific antibody)
chain: DVQLVESGGGLVQPGGSLRLSCVASGDVHKINFLGWYRQAPGKEREKVAHISIGDQTDYADSAKGRFTISRDESKNMVYLQMNSLKPEDTAVYFCRAFSRIYPYDYWGQGTLVTVSSGGGGSGGGGSGGGGSGGGGSGGGGSGGGGSGGGGSEVQLVESGGGLVQAGGPLRLSCAASGRTFSSYVMGWFRQAPGKEREFVAAIYWSNGKTQYTDSVKGRFTISGDNAKNTVYLQMNSLNPEDTAVYYCVADKDETGFRTLPIAYDYWGQGTLVTVSSGGGGSGGGGSGGGGSGGGGSGGGGSGGGGSGGGGSEVQLVESGGGLVQAGGSLRLSCAASGITSKINDMGWYRQTPGNYREWVASITATGTTNYRDSVKGRFTISRDNAKSTVYLQMNSLKPEDTTVYYCNTFPPISNFWGQGTLVTVSSA
Human CD123 [5]
  EC50 (M), redirected cynomolgus T cell mediated killing of MOLM-13 cells, flow cytometry, E:T 10:1: 2.9e-11 M
  EC50 (M), redirected human T cell mediated killing of MOLM-13 cells, flow cytometry, E:T 10:1: 2e-11 M
Human CD123 [6]
  % lysis, redirected cynomolgus T cell mediated killing of KG1a cells, flow cytometry, E:T 10:1: 34%
  % lysis, redirected human T cell mediated killing of KG1a cells, flow cytometry, E:T 10:1: 67%
  EC50 (M), redirected cynomolgus T cell mediated killing of KG1a cells, flow cytometry, E:T 10:1: 1.7e-11 M
  EC50 (M), redirected human T cell mediated killing of KG1a cells, flow cytometry, E:T 10:1: 8.1e-11 M
Human CD123 [7]
  EC50 (M), human IFN-γ secretion during redirected human T cell mediated killing of CD123 positive MOLM-13 cells (ELISA): 3.4e-10 M
Human CD123 [8]
  EC50 (M), human IL-6 secretion during redirected human T cell mediated killing of CD123 positive MOLM-13 cells (ELISA): 2.3e-11 M

B4: T017000139 (bispecific antibody)
chain: DVQLVESGGGLVQPGGSLRLSCVASGDVHKINFLGWYRQAPGKEREKVAHISIGDQTDYADSAKGRFTISRDESKNMVYLQMNSLKPEDTAVYFCRAFSRIYPYDYWGQGTLVTVSSGGGGSGGGGSGGGGSGGGGSGGGGSGGGGSGGGGSEVQLVESGGGLVQAGGPLRLSCAASGRTFSSYVMGWFRQAPGKEREFVAAIYWSNGKTQYTDSVKGRFTISGDNAKNTVYLQMNSLNPEDTAVYYCVADKDETGFRTLPIAYDYWGQGTLVTVSSGGGGSGGGGSGGGGSGGGGSGGGGSGGGGSGGGGSEVQLVESGGGLVQAGGSLRLSCAASGITSKINDMGWYRQTPGNYREWVASITATGTTNYRDSVKGRFTISRDNAKSTVYLQMNSLKPEDTTVYYCNTFPPISNFWGQGTLVTVSSA
notes: Multispecific Nanobody polypeptide expressed in Pichia; also called T013700139
[9]
  % lysis, redirected human T cell mediated killing of MOLM-13 cells, flow cytometry, E:T 10:1: 29%
  EC50 (M), redirected human T cell mediated killing of MOLM-13 cells, flow cytometry, E:T 10:1: 2e-11 M
[10]
  % lysis, redirected human T cell mediated killing of KG1a cells, flow cytometry, E:T 10:1: 27%
  EC50 (M), redirected human T cell mediated killing of KG1a cells, flow cytometry, E:T 10:1: 1.1e-10 M
[11]
  % lysis, redirected cyno T cell mediated killing of MOLM-13 cells, flow cytometry, E:T 10:1: 55%
  EC50 (M), redirected cyno T cell mediated killing of MOLM-13 cells, flow cytometry, E:T 10:1: 1.1e-11 M
[12]
  % lysis, redirected cyno T cell mediated killing of KG1a cells, flow cytometry: 42%
  EC50 (M), redirected cyno T cell mediated killing of KG1a cells, flow cytometry: 2.6e-11 M
[13]
  EC50 (M) of CD25 upregulation on cynomolgus T cells during redirected killing of MOLM-13 cells, 72 h: 6e-11 M
[14]
  IC50 (M), redirected human T cell mediated killing of human CD123 transfected CHO Flp-In cells, xCELLigence, E:T 15:1, 50 h: 2.4e-10 M
[15]
  IC50 (M), redirected cynomolgus T cell mediated killing of cynomolgus CD123 transfected HEK Flp-In cells, xCELLigence, E:T 15:1, 80 h: 1.1e-11 M
[16]
  EC50 (M), IFN-γ secretion by cynomolgus T cells during killing of CD123 transfected adherent target cells: 2.3e-09 M
  EC50 (M), IFN-γ secretion by human T cells during killing of CD123 transfected adherent target cells: 1e-09 M
[17]
  EC50 (M), human IL-6 secretion during human T cell mediated killing of CD123 transfected adherent target cells: 4.8e-10 M
[18]
  EC50 (M), redirected cynomolgus T cell mediated killing of CD123 positive KG1a cells, flow cytometry, E:T 10:1: 1.7e-11 M
  EC50 (M), redirected human T cell mediated killing of CD123 positive KG1a cells, flow cytometry, E:T 10:1: 8.1e-11 M
[19]
  EC50 (M), redirected cynomolgus T cell mediated killing of CD123 positive MOLM-13 cells, flow cytometry, Experiment 1: 6e-11 M
  EC50 (M), redirected cynomolgus T cell mediated killing of CD123 positive MOLM-13 cells, flow cytometry, Experiment 2: 3.1e-11 M
  EC50 (M), redirected human T cell mediated killing of CD123 positive MOLM-13 cells, flow cytometry, Experiment 2: 3e-11 M
[20]
  EC50 (M), human IFN-γ secretion during human T cell mediated killing of KG1a cells: 3.2e-11 M
  EC50 (M), human IFN-γ secretion during human T cell mediated killing of MOLM-13 cells: 3.4e-10 M
[21]
  EC50 (M), human IL-6 secretion during human T cell mediated killing of MOLM-13 cells: 2.3e-11 M
[22]
  IC50: 640 nM
[23]
  IC50: 3.7 nM
[24]
  IC50: 3.3 nM
[25]
  IC50: 11 nM

Reference: patent US20240199740A1 (Ablynx, published 2024)
